Source: US20150037348A1 (AbbVie / Abbott, published 2015)
Several values for one entry are separate records, joined by “and”; a condition that tells them apart may be missing. Equal values may be shown once. Read-outs that look alike come from different tables or passages of the source. Each block holds one binder with its values, some of them ahead of it.

How the values were obtained:
[1] = target: T1, recombinant human IL-12 (rhIL-12) (human, UniProt P29459 23-219; P29460 23-328); assay: BIAcore, captured J695, soluble rhIL-12, mean of three experiments
T1 construct: disulfide-linked p35/p40 heterodimer (p70); also called IL-12 p70; rec. human IL12
T1 sequence (looked up) 1: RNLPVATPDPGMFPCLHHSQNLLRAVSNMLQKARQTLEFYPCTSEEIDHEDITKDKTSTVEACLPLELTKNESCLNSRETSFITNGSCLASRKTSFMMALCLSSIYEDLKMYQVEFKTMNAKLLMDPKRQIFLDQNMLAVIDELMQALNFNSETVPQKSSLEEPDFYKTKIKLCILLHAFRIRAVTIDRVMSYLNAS
T1 sequence (looked up) 2: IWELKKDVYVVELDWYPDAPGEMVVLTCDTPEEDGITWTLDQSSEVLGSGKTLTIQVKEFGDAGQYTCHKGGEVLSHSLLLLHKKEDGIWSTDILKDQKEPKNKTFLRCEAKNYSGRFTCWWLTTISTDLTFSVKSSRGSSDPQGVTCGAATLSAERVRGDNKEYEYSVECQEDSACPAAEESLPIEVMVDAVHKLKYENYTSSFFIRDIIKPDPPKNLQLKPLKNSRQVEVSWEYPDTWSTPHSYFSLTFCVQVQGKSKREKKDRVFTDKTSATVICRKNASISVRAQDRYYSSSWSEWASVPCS
Method: Three independent experiments were performed, and the values shown are averages for the three experiments. From these measurements, the apparent dissociation (kd) and association (kₐ) rate constants were derived and used to calculate a Kd value for the interaction (see Table 10).

[2] = target: T1, recombinant human IL-12 (rhIL-12); assay: receptor binding assay, 125I-hIL-12 on PHA blasts
[3] = target: T1, recombinant human IL-12 (rhIL-12); assay: receptor binding assay, 125I-hIL-12 on PHA blasts; remark: listed apart in the source
Method: (§1) PHA blast cells isolated as described above, were washed once and resuspended in binding buffer to a cell density of 2×10⁷ cells/ml. […] The cell pellet was examined for cell bound radioactivity using a gamma counter. […] Incubations were carried out in duplicate.

recombinant murine IL-12 = target: T2, recombinant murine IL-12 (mouse, UniProt P43431 23-215; P43432 23-335); assay: BIAcore, COS J695 captured via goat anti-human IgG, cytokine in solution
T2 construct: rmIL12 of R&D Systems, Cat. No. 419-ML, in the BIAcore test; also called mouse IL-12; rmIL12
T2 sequence (looked up) 1: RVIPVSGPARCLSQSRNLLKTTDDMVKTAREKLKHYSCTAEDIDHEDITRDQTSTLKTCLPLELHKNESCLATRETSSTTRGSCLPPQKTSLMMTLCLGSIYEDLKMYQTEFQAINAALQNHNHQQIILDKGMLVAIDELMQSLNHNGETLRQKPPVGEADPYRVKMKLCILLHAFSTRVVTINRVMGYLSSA
T2 sequence (looked up) 2: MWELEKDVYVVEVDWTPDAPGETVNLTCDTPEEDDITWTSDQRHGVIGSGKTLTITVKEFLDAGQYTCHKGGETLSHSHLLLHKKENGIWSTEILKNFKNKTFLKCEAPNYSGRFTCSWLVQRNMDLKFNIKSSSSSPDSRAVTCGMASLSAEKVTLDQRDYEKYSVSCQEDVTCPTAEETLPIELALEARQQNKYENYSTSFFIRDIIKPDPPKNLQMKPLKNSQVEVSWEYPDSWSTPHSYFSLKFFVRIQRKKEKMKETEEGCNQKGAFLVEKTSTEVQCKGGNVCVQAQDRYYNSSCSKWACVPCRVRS
Method: (§2) Before injection of the protein and immediately afterward, HBS buffer alone flowed through each flow cell. […] Cytokines were diluted in HBS running buffer and 50 μl aliquots were injected through the immobilized protein matrices at a flow rate of 5 μl/min. […] The net difference in baseline signal and signal after completion of cytokine injection was taken to represent the binding value of the particular sample. Biosensor matrices were regenerated using 100 mM HCl before injection of the next sample. To determine the dissociation constant (off-rate), association constant (on-rate), BIAcore kinetic evaluation software (version 2.1) was used.

[4] = target: T1, recombinant human IL-12 (rhIL-12); assay: cell-based or functional assay
[5] = target: T1, recombinant human IL-12 (rhIL-12); assay: BIAcore SPR, rhIL-12
Method: as §2
Kd was calculated for each separate experiment and then averaged.

[6] = target: T1, recombinant human IL-12 (rhIL-12); assay: receptor binding assay, 125I-hIL-12 on PHA blasts; remark: listed apart in the source
Method: as §1
Incubations were carried out in duplicate.

[7] = target: T1, recombinant human IL-12 (rhIL-12); assay: cell-based or functional assay; remark: listed apart in the source
[8] = target: T1, recombinant human IL-12 (rhIL-12); assay: BIAcore, captured J695, soluble rhIL-12, average
Method: as §2

[9] = target: T1, recombinant human IL-12 (rhIL-12); assay: cell-based or functional assay; remark: listed apart in the source
[10] = target: T3, chimeric IL-12 (murine p35 subunit with the human IL-12 p40 subunit) (mouse; human, UniProt P43431 23-215; P29460 23-328); assay: inhibition of IFN-γ production in mice given chimeric IL-12
T3 sequence (looked up) 1: T2 sequence (looked up) 1
T3 sequence (looked up) 2: T1 sequence (looked up) 2
Method: The control hulgG1γ was given IP. at a dose of 0.05 mg/kg on days 0, 2, and 4. The mice were bled on day 5, and serum IFN-γ levels were determined by ELISA.

murine IL-12 = target: T4, murine IL-12 (mouse, UniProt P43431 23-215; P43432 23-335); assay: neutralization bioassay with non-human IL-12 (murine 2D6 cell proliferation)
T4 construct: Purified or recombinant murine IL-12 (R&D Systems, Cat. No. 419-ML in the BIAcore test); also called mouse IL-12; rmIL12
T4 sequence (looked up) 1: T2 sequence (looked up) 1
T4 sequence (looked up) 2: T2 sequence (looked up) 2
Method: 2D6 cells were washed once and resuspended in RPMI complete medium containinγβME to a cell density of 1×10⁵ cells/ml. […] The culture contents were harvested and counted by liquid scintillation counting. All samples were assayed in duplicate.

- Kd [1]: 0.0974 nM and 0.014 µg/mL
- IC50 [2]: 0.011 nM
- IC50 [3]: 0.05 nM
- binding result (recombinant murine IL-12): no binding
- IFN gamma IC50 [4]: 0.005 nM
- PHA assay IC50 [4]: 0.01 nM
- Kd [5]: 0.119 nM and 0.149 nM
- IC50 [6]: 0.034 nM and 0.03 nM
- PHA assay IC50 (M) p70:p40 1:0 [7]: 1e-11 M
- PHA assay IC50 (M) p70:p40 1:50 [7]: 3.5e-11 M
- Kd [8]: 0.134 nM and 0.0974 nM
- IFN-γ Assay IC50 [9]: 0.0058 nM and 0.0043 nM
- PHA blast Assay IC50 [9]: 0.0055 nM and 0.0044 nM
B1: J695 (antibody, human IgG1, V domains shown)
VH: QVQLVESGGGVVQPGRSLRLSCAASGFTFSSYGMHWVRQAPGKGLEWVAFIRYDGSNKYYADSVKGRFTISRDNSKNTLYLQMNSLRAEDTAVYYCKTHGSHDNWGQGTMVTVSS
VL: QSVLTQPPSVSGAPGQRVTISCSGSRSNIGSNTVKWYQQLPGTAPKLLIYYNDQRPSGVPDRFSGSKSGTSASLAITGLQAEDEADYYCQSYDRYTHPALLFGTGTKVTVLG
notes: human IgG1 with lambda light chain

B2: J695 (antibody, V domains shown)
VH: B1 VH
VL: B1 VL
notes: Human IgG1 with lambda light chain (detected with anti-human lambda); Made in CHO or COS cells
- binding result [10]: binds
- binding result (murine IL-12): no binding
